Reference: article PMC5748976 (The Journal of Cell Biology, 2018)

Columns and labels:
[1] = biological target: recombinant His-tagged Pyk2 (proline-rich tyrosine kinase 2) (UniProt Q14289 1-1009); experiment: pull-down
[2] = biological target: recombinant His-tagged FAK (focal adhesion kinase) (UniProt Q05397 1-1052); experiment: pull-down
recombinant His-tagged FAK (focal adhesion kinase), sequence (Q05397 whole entry): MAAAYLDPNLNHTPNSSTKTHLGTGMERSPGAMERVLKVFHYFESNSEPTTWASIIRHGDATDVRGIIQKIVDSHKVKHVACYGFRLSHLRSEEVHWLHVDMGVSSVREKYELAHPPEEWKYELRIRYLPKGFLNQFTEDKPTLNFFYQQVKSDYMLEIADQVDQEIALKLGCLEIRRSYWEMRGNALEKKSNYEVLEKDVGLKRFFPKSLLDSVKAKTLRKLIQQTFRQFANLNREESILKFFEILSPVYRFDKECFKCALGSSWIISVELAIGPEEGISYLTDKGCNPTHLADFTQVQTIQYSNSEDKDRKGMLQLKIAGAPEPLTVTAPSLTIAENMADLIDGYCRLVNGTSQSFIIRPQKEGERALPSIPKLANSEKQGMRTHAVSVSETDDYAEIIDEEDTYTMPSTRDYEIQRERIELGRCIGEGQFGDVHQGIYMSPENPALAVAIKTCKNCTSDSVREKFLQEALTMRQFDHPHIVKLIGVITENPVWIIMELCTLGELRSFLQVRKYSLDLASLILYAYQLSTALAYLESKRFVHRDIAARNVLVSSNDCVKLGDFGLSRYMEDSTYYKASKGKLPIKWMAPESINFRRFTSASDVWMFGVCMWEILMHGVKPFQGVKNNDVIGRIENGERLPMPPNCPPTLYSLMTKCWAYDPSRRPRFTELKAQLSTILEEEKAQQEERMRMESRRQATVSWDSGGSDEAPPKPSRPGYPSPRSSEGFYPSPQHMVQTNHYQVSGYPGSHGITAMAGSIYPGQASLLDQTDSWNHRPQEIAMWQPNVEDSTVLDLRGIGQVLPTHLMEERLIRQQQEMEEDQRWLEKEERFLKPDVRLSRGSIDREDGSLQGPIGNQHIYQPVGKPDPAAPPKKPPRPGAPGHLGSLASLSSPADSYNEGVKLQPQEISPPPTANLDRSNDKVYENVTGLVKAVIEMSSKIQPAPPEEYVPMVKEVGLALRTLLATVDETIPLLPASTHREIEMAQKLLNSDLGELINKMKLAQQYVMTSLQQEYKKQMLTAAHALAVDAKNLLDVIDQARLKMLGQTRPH

recombinant His-tagged Pyk2 (proline-rich tyrosine kinase 2), sequence (Q14289 whole entry): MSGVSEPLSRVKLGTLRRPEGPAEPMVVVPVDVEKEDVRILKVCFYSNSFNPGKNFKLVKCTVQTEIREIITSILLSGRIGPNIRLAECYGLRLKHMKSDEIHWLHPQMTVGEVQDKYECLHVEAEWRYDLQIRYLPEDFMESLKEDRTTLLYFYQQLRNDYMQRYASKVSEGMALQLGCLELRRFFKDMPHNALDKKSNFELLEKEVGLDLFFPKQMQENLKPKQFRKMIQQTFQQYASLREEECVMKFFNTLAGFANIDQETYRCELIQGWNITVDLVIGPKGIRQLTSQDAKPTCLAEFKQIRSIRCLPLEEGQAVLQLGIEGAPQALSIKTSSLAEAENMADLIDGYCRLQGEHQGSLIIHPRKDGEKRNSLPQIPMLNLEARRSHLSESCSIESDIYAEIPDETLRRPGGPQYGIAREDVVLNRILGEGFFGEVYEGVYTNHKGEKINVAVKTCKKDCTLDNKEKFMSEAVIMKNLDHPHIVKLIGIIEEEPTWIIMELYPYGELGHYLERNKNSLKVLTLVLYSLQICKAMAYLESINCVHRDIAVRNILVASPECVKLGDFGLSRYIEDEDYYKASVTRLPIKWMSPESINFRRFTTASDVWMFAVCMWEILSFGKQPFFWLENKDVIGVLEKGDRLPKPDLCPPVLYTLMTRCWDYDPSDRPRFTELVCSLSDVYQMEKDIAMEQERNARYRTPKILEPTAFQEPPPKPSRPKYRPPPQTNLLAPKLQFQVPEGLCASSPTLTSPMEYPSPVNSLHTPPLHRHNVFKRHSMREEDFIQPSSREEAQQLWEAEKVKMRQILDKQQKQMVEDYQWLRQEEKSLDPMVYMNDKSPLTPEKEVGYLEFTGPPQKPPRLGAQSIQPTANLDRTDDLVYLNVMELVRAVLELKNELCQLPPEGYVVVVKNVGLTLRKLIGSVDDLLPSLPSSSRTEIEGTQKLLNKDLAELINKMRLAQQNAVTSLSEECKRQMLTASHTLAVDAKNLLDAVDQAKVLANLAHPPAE

B1: recombinant His-tagged cortactin (natural protein)
chain: not shown
B1 was tested, and the Kd [1] was 490 ± 138 nM and the Kd [2] was 2160 ± 683 nM.
